Measurements taken from patent US20240165226A1, “COMBINATION TREATMENT OF CD38-EXPRESSING TUMORS” (GENMAB A/S, priority 2006, published 2024).
“Also recorded” adds a separate entry of the source.

Columns and labels:
[1] = system: PBMCs; assay: Induction of IL-6 release by PBMC; type: cell-based, human; conditions: 20 μg/ml antibody and 10 ng/ml LPS, 7 donors
Description: -003, -005 and -024 were tested in an assay as described in Ausiello et al., Tissue antigens 56, 538-547 (2000). Briefly, PBMCs were cultured at 1×10^6 cells/well in 48-well plates in the presence of 20 μg/ml of antibodies and 10 ng/ml LPS (Sigma-Aldrich Chemie, Zwijndrecht, The Netherlands) in 500 μl RPMI^++. After an O/N incubation at 37° C., supernatant was harvested and stored at −20° C. The IL-6 concentration was assessed by ELISA (IL-6 ELISA kit, U-CyTech Biosciences, Utrecht, The Netherlands) according to the manufacturer's instructions. Data are shown mean concentration in pg/ml (±SEM) from 7 donors.

[2] = system: PBMCs; assay: Induction of proliferation of PBMC; type: cell-based, human; conditions: 1.1-30 μg/ml, 3H-thymidine incorporation, 10 donors
Description: -003, -005 and -024 were tested in an assay essentially as described in Ausiello et al., Tissue antigens 56, 538-547 (2000). Briefly, PBMCs from healthy donors were cultured at 1×10^5 cells/well in flat bottom 96-well plates in the presence of antibodies (final concentration: 1.1-3.3-10-30 μg/ml) in 200 μl RPMI^++. Stimulation of cells with IL-15 (at 333 ng/ml; Amgen Inc., Thousand Oaks, CA, USA) was used as positive control. After a 4 day incubation at 37° C., 30 μl ^3H-thymidine (16.7 μCi/ml) was added, and culture was continued O/N. ^3H-thymidine incorporation was assessed using a […] (Packard Instruments, Meriden, DT, USA), according to the manufacturer's instructions. Data are shown as the mean cpm (±SEM) of PBMCs obtained from 10 donors.

[3] = system: fresh MM tumor cells; assay: Binding to fresh multiple myeloma tumor cells by flow cytometry; set-up: species or system human; conditions: for binding to MM cells: in words
Description: Fresh MM tumor cells were obtained from Dr. Lokhorst (University Medical Center Utrecht, Utrecht, The Netherlands. Tumor cells were isolated from bone marrow of multiple myeloma patients by Ficoll (Bio Whittaker; lymphocyte separation medium, cat 17-829E) gradient centrifugation. After harvesting and counting, MM cells (100,000 cells/well) were resuspended with 25 μl FITC-labeled CD38-specific antibodies and 25 μl CD138. After incubation (4° C., 30 min), cells were washed in PBS-BSA and PE-labeled goat-anti-mouse IgG (1:200; Jackson ImmunoResearch Europe Ltd. Soham, UK) was added. After incubation (4° C., 30 min) and washing of the cells in PBS-BSA, fluorescence was measured by flow cytometry.

[4] = system: Daudi-luc cells; assay: Complement-dependent cytotoxicity of Daudi-luc cells; type: cell-based; conditions: for CDC-mediated lysis of Daudi-luc cells: in words
Description: After harvesting and counting of Daudi-luc cells, the viability of the cells should be ≥90%. After washing (PBS), cells are resuspended at 2.0×10^6 cells/ml in RPMI-B (RPMI supplemented with 1% BSA). Thereafter, cells are put in 96-well round-bottom plates at 1×10^5 cells/well (50 μl/well). Then, 50 μl antibodies is added to the wells (final concentration range between 0-100 μg/ml (three-fold dilutions in RPMI-B)). After incubation (RT, 15 min), 11 μl of pooled human serum (pool of 18 healthy donors) was added to each well (37° ° C., 45 min). Wells were resuspended once and 120 μl was transferred to FACS tubes (Greiner). Then, 10 μl propidium iodide (PI; Sigma-Aldrich Chemie B.V.) was added (10 μg/ml solution) to this suspension. Lysis was detected by flow cytometry (FACScalibur™, Becton Dickinson, San Diego, CA, USA) by measurement of the percentage of dead cells (corresponds to PI-positive cells).

[5] = system: Daudi-luc cells; assay: Binding to Daudi-luc cells by flow cytometry; conditions: for binding to Daudi-luc cells: in words
Description: After harvesting and counting, Daudi-luc cells, CHO cells transfected with CD38 and control CHO cells were resuspended in PBS (1×10^6 cells/ml). Then, cells were put in 96-well V-bottom plates (100 μl/well) and washed twice in PBS-BSA (PBS supplemented with 0.1% BSA and 0.02% Na-azide). Thereafter, 50 μl antibody solution in PBS-BSA was added to the cells (4° C., 30 min). After washing three times in PBS-BSA, 50 μl (1:400 dilution) of rabbit anti-human IgG-FITC in PBS-BSA was added (4° C. in the dark, 30 min). Cells were washed three times and specific binding of CD38-antibodies to CHO-CD38 and Daudi-luc cells was detected by flow cytometry. HuMab-KLH (a human monoclonal antibody against KLH (keyhole limpet haemocyanin) generated by Genmab B.V., Utrecht, The Netherlands by use of the immunization protocols described elsewhere herein) was used as a control. […] No binding to control CHO cells is observed (data not shown).

[6] = molecular target: T1, His-tagged extracellular domain of human CD38 (Homo sapiens, UniProt P28907); assay: Enzymatic activity of recombinant CD38 (cGDPR production); type: biochemical; conditions: for cGDPribose production / reduced production of cGDPR: after 90 minutes; for inhibitory effect on the production of cGDPR: recombinant His-CD38
T1 construct: poly-His-tag (N); made in house; secreted into culture supernatant
Description: The enzymatic activity of human CD38 was measured in an assay essentially as described in Graeff et al., J. Biol. Chem. 269, 30260-30267 (1994). Briefly, substrate NGD^+ (80 μM) was incubated with CD38 (0.6 μg/ml His-tagged extracellular domain of human CD38, see Example 3 regarding purification of His-CD38) in a buffer containing 20 mM Tris-HCl, pH 7.0. The production of cGDPR can be monitored spectrophotometrically at the emission wavelength of 410 nm (excitation at 300 nm). In this example an excitation filter of 340±60 nm and an emission filter of 430±8 nm was used.
To test the effect of -003, -005 and -024 on the enzymatic activity of CD38, recombinant His-CD38 protein was pre-incubated for 15 min at room temperature with various concentrations (30, 3, 0.3 and 0.03 μg/ml) of the different antibodies before adding the substrate NGD^+. The production of cyclic GDP-ribose (cGDPR) was recorded at different time points after addition of […] (3, 6, 9, 12, 30, 45, 60, 75 and 90 min).

[7] = system: CHO-CD38 cells; assay: Complement-dependent cytotoxicity of CHO-CD38 cells; type: cell-based; conditions: for CDC-mediated lysis of CHO-CD38 cells: in words
[8] = CDC, Daudi-luc cells (n = 2), Table 10
[9] = CDC, CHO-CD38 cells (n = 2), Table 10

## -005: human monoclonal IgG1 anti-CD38 antibody, VL region SEQ ID No:12 and VH region SEQ ID No:17
[1]
  release of IL-6: does not induce release of significant IL-6 levels
[2]
  proliferation of PBMCs: do not induce significant proliferation
[3]; binding, flow cytometry
  EC50 MM cells: 0.04 mg/L
[3]
  binding to MM cells: bind
[4]; CDC
  maximum lysis: ~60%
[4]; CDC of Daudi-luciferase cells
  maximal lysis compared to TH3079: 2-3 times higher
[4]; [8]
  % Max. lysis: 70.5 ± 7.78%
  EC50: 0.39 ± 0.00 mg/L
[4]; CDC, Table 3
  EC50 Daudi-luc: 0.33 mg/L
[4]
  CDC-mediated lysis of Daudi-luc cells: lysis of Daudi-luc cells is induced
[5]; binding, flow cytometry
  EC50 Daudi-luc: 0.09 mg/L
[5]
  binding to Daudi-luc cells: bind
[6]; 0.03 μg/ml antibody
  cGDPribose production: 102 % of NGD control
[6]; 0.3 μg/ml antibody
  cGDPribose production: 98 % of NGD control
[6]; 3 μg/ml antibody
  cGDPribose production: 66 % of NGD control
[6]; 3 μg/ml
  reduced production of cGDPR: 34%
[6]; 30 μg/ml antibody
  cGDPribose production: 68 % of NGD control
[6]; 30 μg/ml
  reduced production of cGDPR: 32%
[6]
  inhibitory effect on the production of cGDPR: pronounced inhibitory effect
[7]; [9]
  % Max. lysis: 76.5 ± 3.54%
  EC50: 0.15 ± 0.007 mg/L
[7]; CDC, Table 3
  EC50 CD38-CHO: 0.14 mg/L
[7]
  CDC-mediated lysis of CHO-CD38 cells: lysis is induced; also recorded: induce CDC-mediated lysis

B1: -024: human monoclonal IgG1 anti-CD38 antibody, VL region SEQ ID No:22 and VH region SEQ ID No:27 (antibody, listed as Homo sapiens, V domains shown)
VH: EVQLVQSGAEVKKPGESLKISCKGSGYSFSNYWIGWVRQMPGKGLEWMGIIYPHDSDARYSPSFQGQVTFSADKSISTAYLQWSSLKASDTAMYYCARHVGWGSRYWYFDLWGRGTLVTVSS
VL: EIVLTQSPATLSLSPGERATLSCRASQSVSSYLAWYQQKPGQAPGLLIYDASNRASGIPARFSGSGSGTDFTLTISSLEPEDFAVYYCQQRSNWPLTFGGGTKVEIK
[1]
  release of IL-6: did not induce release of significant IL-6 levels
[2]
  proliferation of PBMCs: did not induce significant proliferation
[3]
  binding to MM cells: bind
[4]
  CDC-mediated lysis of Daudi-luc cells: does not induce CDC
[5]
  binding to Daudi-luc cells: bind
[6]; 0.03 μg/ml antibody
  cGDPribose production: 105 % of NGD control
[6]; 0.3 μg/ml antibody
  cGDPribose production: 104 % of NGD control
[6]; 3 μg/ml antibody
  cGDPribose production: 100 % of NGD control
[6]; 30 μg/ml antibody
  cGDPribose production: 99 % of NGD control
[6]
  inhibitory effect on the production of cGDPR: No inhibitory effect
[7]
  CDC-mediated lysis of CHO-CD38 cells: lysis is induced
